The supplement of paper PMC10567573
± gives the standard deviation.

Experiment: protein stability index of a GFP-peptide fusion (GPS, HEK-293T) (PSI 1-6); higher = more stable
[1] = treatment: DMSO, c terminus: a fixed tail appended
[2] = treatment: MLN4924 1 uM, 8 h, c terminus: a fixed tail appended
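Note: 24-mer peptide tiles fused after GFP, lentivirally expressed, FACS-sorted into six equal bins by GFP/DsRed ratio, decoded by Illumina sequencing, PSI is the read-weighted mean bin number.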

Row | Sequence | protein stability index [1] | protein stability index [2] | protein stability index (treatment: DMSO, c terminus: native) | protein stability index (treatment: MLN4924 1 uM, 8 h, c terminus: native)
1 | TNSSSLRLPRQNSDGGQKNKPREH [WSB1] | 5.02 ± 0.15 | 4.93 ± 0.072 |  | 
2 | TNVESQLAEIRCDLERQNQEYQVL [KRT34] | 4.32 ± 0.21 | 4.27 ± 0.17 |  | 
3 | TPLLAASVTGHTNIVEYLIQEQPG [FEM1A] | 3.39 ± 0.17 | 3.67 ± 0.32 |  | 
4 | TPMNHQKAVNDETCKASHITSSVF [FBXO34] | 3.75 ± 0.075 | 3.77 ± 0.1 |  | 
5 | TPVILVGCQLDLRYADLEAVNRAR [RHOBTB1] | 2.46 ± 0.09 | 2.34 ± 0.39 |  | 
6 | TQCSEEDQCKINKQIYNLIHLDPR [FEM1B] | 3.48 ± 0.12 | 3.4 ± 0.28 |  | 
7 | TQLFIGGVTGWCTGFIFQKVGKLA [FUNDC2] | 2.33 ± 0.39 | 2.32 ± 0.28 |  | 
8 | TRLYLRSHRPNMELCRDAAQFRLL [TEKT4] | 2.16 ± 0.44 | 2.27 ± 0.32 |  | 
9 | TSIVYATEKKQTKVEFPEARIYEE [KCTD10] | 4.5 ± 0.12 | 4.21 ± 0.55 |  | 
10 | TSPSPERSLLLKYARTPTLDPDTM [TRIM14] | 3.89 ± 0.66 | 4.29 ± 0.32 |  | 
11 | TTCSTPLLNSPPSFVCWSRGFMEM [AUP1] | 2.21 ± 0.26 | 2.33 ± 0.31 |  | 
12 | TTGLQVPSAVRCLQKRGSATSSSN [FSD1] | 4.13 ± 0.12 | 3.99 ± 0.14 |  | 
13 | TTHFQSIPDAFWWAVVTMTTVGYG [KCNA4] | 3.05 ± 0.88 | 2.96 ± 0.33 |  | 
14 | TVCDDKWDLVSASVVCRELGFGSA [LOXL2] | 2.54 ± 0.49 | 2.7 ± 0.2 |  | 
15 | TVLTRHSQPATPTPLQSRTSIVQA [PDLIM7] | 3.77 ± 0.093 | 3.8 ± 0.28 |  | 
16 | TVLVSVTVFDANDNAPVFTLPEYR [PCDHGA10] | 2.76 ± 0.43 | 2.58 ± 0.36 |  | 
17 | TWWRVRNAANRTGYVPSNYVERKN [NCK2] | 2.86 ± 0.14 | 3.06 ± 0.27 |  | 
18 | VAALVVNFSQPVAGRPSLLRHDEV [NLN] | 2.46 ± 0.49 | 2.48 ± 0.36 |  | 
19 | VAREYYSEADASHCIQQILEAVLH [CAMK2B] | 2.29 ± 0.3 | 2.87 ± 0.49 |  | 
20 | VASAPLQPPVPSLSEVKPPPPPPP [TRADD] | 5.02 ± 0.15 | 4.71 ± 0.34 |  | 
21 | VDDLSVEWDAMGGKVQDIKAREKD [FSD1] | 5.41 ± 0.33 | 5.5 ± 0.43 |  | 

Row | Sequence | protein stability index [1] | protein stability index [2] | protein stability index (treatment: DMSO, c terminus: native) | protein stability index (treatment: MLN4924 1 uM, 8 h, c terminus: native)
22 | VDTLTFQSQSLRDRARRFEEALRK [MTUS2] | 4.08 ± 0.2 | 4.14 ± 0.22 |  | 
23 | VELPIVDSLHPRPPYLPLAVPEDL [FUT8] | 4.24 ± 0.31 | 4.54 ± 0.22 |  | 
24 | VENGDFNWIVPGKFLAFSGPHPKS [CDC14A] | 2.76 ± 0.41 | 2.92 ± 0.43 |  | 
25 | VGDALEEVLSKALSQRTITVGVYE [GADD45A] | 2.54 ± 0.19 | 2.47 ± 0.56 |  | 
26 | VGKGEILASLQDGAAESPYGHPAG [RAB40B] | 4.66 ± 0.24 | 4.76 ± 0.2 |  | 
27 | VGSVSVDCGPSRADRCSPKEDQAW [FBXO34] | 3.66 ± 0.25 | 4.06 ± 0.33 |  | 
28 | VHGIRSVGTAAVNMCLVATGGADA [IMPA1] | 2.78 ± 0.35 | 2.93 ± 0.39 |  | 
29 | VIDILPNCVSSVYLYYDPDYSFLS [ATE1] | 3.35 ± 0.49 | 3.1 ± 0.77 |  | 
30 | VKMFYSFQDKRNLYLIMEFLPGGD [STK38L] | 3.11 ± 0.85 | 3.29 ± 0.4 |  | 
31 | VKYPELVLEHSLDREEEAIHHLVL [PCDHGA10] | 2.6 ± 0.096 | 2.63 ± 0.36 |  | 
32 | VLGGNLQGGELVVAYPYDLVRSPW [CPXM2] | 2.13 ± 0.12 | 2.48 ± 0.48 |  | 
33 | VLKYFSHYMEENLMDGGDLPSVTD [PLK2] | 2.75 ± 0.52 | 2.67 ± 0.64 |  | 
34 | VLLGWTLHYFPFFLMGRVLYFHHY [POMT2] | 2.96 ± 0.29 | 2.91 ± 0.42 |  | 
35 | VLNVAGEAGGKQKAVEEELDAEDR [SLC6A17] | 5.72 ± 0.17 | 5.69 ± 0.16 |  | 
36 | VMYTIHMGCHGFRDPFECNMCGYH [IKZF1] | 2 ± 0.45 | 2.4 ± 1.3 |  | 
37 | VNLQHLDLLNNKLVTLPVSFAQLK [LRRC59] | 2.12 ± 0.23 | 2.31 ± 0.3 |  | 
38 | VNRFGTYPALASKNGKKWEILNFN [ACSBG2] | 2.81 ± 0.28 | 2.71 ± 0.49 |  | 
39 | VNYTQGLWEKVMPSRYAAIYNGGV [SLC19A2] | 2.33 ± 0.18 | 2.21 ± 0.47 |  | 
40 | VPAQKFSALTFLRVDQDKDKDCSL [SMOC2] | 4.19 ± 0.3 | 4.52 ± 0.31 |  | 
41 | VPHWINSNTLGFGTEQAPYGMQTQ [ETS2] | 2.58 ± 0.41 | 2.88 ± 0.22 |  | 
42 | VPVSFIFIFTFVKKKKIGFYFEVC [PCDHGA10] |  | 1.82 ± 0.39 |  | 

Row | Sequence | protein stability index [1] | protein stability index [2] | protein stability index (treatment: DMSO, c terminus: native) | protein stability index (treatment: MLN4924 1 uM, 8 h, c terminus: native)
43 | VQGIGIPLVTAIEIVSIWILSFIL [EDNRA] | 3.02 ± 0.63 | 2.42 ± 0.49 |  | 
44 | VRFDGYVIDGATALWCAAGAGHFE [FEM1B] | 2.91 ± 0.6 | 2.92 ± 0.64 |  | 
45 | VSAEGSHPDPAPFCADNPSELPPP [DVL3] | 5.25 ± 0.27 | 5.32 ± 0.18 |  | 
46 | VSGGSRSLNMSRRDSESTRHDSET [PHTF1] | 5.25 ± 0.26 | 5.5 ± 0.14 |  | 
47 | VTEHPLELIRVEVEILDLNDNSPS [PCDHGC5] | 2.92 ± 0.29 | 3 ± 0.41 |  | 
48 | VTSVSIELEKNFSNFPRQYFALRK [TRIM39] | 2.47 ± 0.25 | 2.5 ± 0.15 |  | 
49 | VVACDFSPDGALLATASYDTRVYI [WSB1] | 3.41 ± 0.6 | 2.74 ± 0.83 |  | 
50 | VVRYLLEQRADPNAKAHCGATALH [FEM1B] | 2.23 ± 0.21 | 2.34 ± 0.18 |  | 
51 | VYLSPRDDGYSTKDSYSSRDYPSS [RBMX] | 3.21 ± 0.27 | 3.38 ± 0.43 |  | 
52 | VYSVSVDQKERCIIVRTTNKKYYK [DPCD] | 2.14 ± 0.14 | 2.21 ± 0.38 |  | 
53 | WEYMHSPSENSKEAEILEVLRHPR [CPOX] | 3.99 ± 0.12 | 4.07 ± 0.32 |  | 
54 | WLQNTHVYSWPKNKKNILLRLLRE [TRAF3IP2] | 2.08 ± 0.58 | 2.38 ± 0.42 |  | 
55 | WLYYYAYKDFLWFFSKRFKSAAML [SOAT1] | 2.15 ± 0.34 | 2.29 ± 0.44 |  | 
56 | WPGASGSAQSLDRLGIMGAGLGA [ATP23] |  |  | 2.55 ± 0.26 | 2.43 ± 0.37
57 | WTDSEVDSSCSGQPIHLWQFLKEL [SPDEF] | 2.93 ± 0.24 | 3.1 ± 0.39 |  | 
58 | WTLQRRLTRLRTASGHEPGGSAVC [PLEKHN1] | 3 ± 0.23 | 3.06 ± 0.22 |  | 
59 | WVGTGLAAALAGLVGLATAAFGHV [CPOX] | 2.13 ± 0.37 | 2.16 ± 0.3 |  | 
60 | YAHQMVRTDSREQKLDAFLQPLSK [MLH1] | 2.98 ± 0.3 | 3.35 ± 0.35 |  | 
61 | YARQHCPLKNPTFLDYVRPRSWTC [SOAT1] | 2.12 ± 0.46 | 2.14 ± 0.53 |  | 
62 | YDGYRLRVEFPRSGRGTGRGGGGG [SRSF1] | 3.81 ± 0.26 | 3.99 ± 0.25 |  | 
63 | YEADCLAAAYGGKAAPAAPPAARP [CEBPB] | 4.49 ± 0.15 | 4.6 ± 0.2 |  | 

Row | Sequence | protein stability index [1] | protein stability index [2] | protein stability index (treatment: DMSO, c terminus: native) | protein stability index (treatment: MLN4924 1 uM, 8 h, c terminus: native)
64 | YETVAAATSESTTVEPGKLDVGAT [DRICH1] | 5.36 ± 0.2 | 5.43 ± 0.32 |  | 
65 | YFATFYSCTPRMNRRMVGPDVIPL [FAM189A2] | 2.72 ± 0.27 | 2.54 ± 0.55 |  | 
66 | YGHDYPRAAYQQVIQPALPGQPLP [TRAF3IP2] | 2.55 ± 0.71 | 3.25 ± 0.69 |  | 
67 | YHPVKIGDLFNGRYHVIRKLGWGH [SRPK2] | 2.79 ± 0.55 | 2.24 ± 0.22 |  | 
68 | YKPVVLLQGLSLIVTWFMLLYAQG [SLC19A2] | 2.94 ± 0.42 | 3.02 ± 0.29 |  | 
69 | YLTVVFEHDAWFIFFMAAFAFSNG [SLC29A1] | 3.18 ± 0.41 | 2.92 ± 0.59 |  | 
70 | YNSSRFGEGVERELFVREPTGRLP [MYORG] | 3.62 ± 0.22 | 3.73 ± 0.43 |  | 
71 | YPNYEFISDNSISWSAGLHNRYTE [FUT8] | 2.51 ± 0.1 | 2.72 ± 0.36 |  | 
72 | YPTSDQEGDPGSKQPRKKRGRYRQ [LCOR] | 5.3 ± 0.23 | 5.45 ± 0.27 |  | 
73 | YQKAAEEVEAKFKRYESHPVCADL [CHCHD3] | 4.26 ± 0.14 | 4.25 ± 0.28 |  | 
74 | YRHVMLPKDIAKLVPKTHLMSESE [CKS1B] | 3.75 ± 0.32 | 3.85 ± 0.23 |  | 
75 | YSCACLASGSVLRLVDAVLGAEIR [HDAC6] | 3 ± 0.68 | 2.89 ± 0.66 |  | 
76 | YSQASELPTDAVDCMSRELVSLTS [FBXO34] | 4.03 ± 0.14 | 4.11 ± 0.11 |  | 
77 | YSSGEFSSGRKWGDDAPKEEVDTG [INTS4] | 3.1 ± 0.48 | 3.97 ± 0.56 |  | 
78 | YSSQLSQVQSLITNVESQLAEIRC [KRT34] | 3.07 ± 0.21 | 3.24 ± 0.24 |  | 
79 | YSSSKGSLRLCDMRAAALCDKHSK [PPP2R2C] | 2.53 ± 0.8 | 3.11 ± 0.71 |  | 
80 | YVKFDAVSGDYYPIIYFNDYWNLQ [CLPTM1] | 2.78 ± 0.5 | 2.8 ± 0.64 |  | 
81 | YVVLAYTLPPASRFIIIFEQIRFV [SOAT1] | 3.27 ± 0.48 | 2.93 ± 0.53 |  | 
82 | YYPSGDAFASGSDDATCRLYDLRA [GNB5] | 2.94 ± 0.33 | 3.38 ± 0.34 |  | 
83 | YYSDKYDDEEFEYRHVMLPKDIAK [CKS1B] | 3.81 ± 0.12 | 3.91 ± 0.14 |  | 
